{"source": "patent US20210101970A1", "about": "(Pfizer, published 2021)", "binders": {"B1": {"name": "2C9 (reference antibody) (antibody, human IgG1, kappa, V domains shown)", "VH": "EVQLVESGGGLVKPGGSLRLSCAASGFTFSTNAMNWVRQAPGKGLERVARIRSKSNNYATYYADSVKDRFTISRDDSKNTLYLQMNSLKTEDTAVYYCVTMIPFAYWGQGTLVTVSS", "VL": "not shown", "notes": "fucosylated"}, "B2": {"name": "Chimeric 11G2 (antibody, human IgG1, kappa, V domains shown)", "VH": "EVKLVESGGGLVQPGGSLRLSCATSGFTFTDFYMSWVRQPPGRALEWLGFIRNKANGYTTEYSASVKGRFTISRDNSQSILYLQMNTLRAGDSATYYCVRVYGSTLHYWGQGTILTVSS", "VL": "DVVVTQSPDSLAVSLGQRATISCRASESVEYHGTSLMHWYQQKPGQPPKLLIYAASNVESGVPARFSGSGSGTDFSLNIHPVEEGDIAMYFCQQSRKVPWTFGGGTKLEIKR", "notes": "mouse V regions on human IgG1/kappa; also called 11G2 (chimeric)"}, "B3": {"name": "Afucosyl humanized 11G2 154/155 (antibody, human IgG1, kappa, V domains shown)", "VH": "EVQLVESGGGLVQPGGSLRLSCAASGFTFTDFYMSWVRQAPGKGLEWVGFIRNKANGYTTEYSASVKGRFTISRDNAKNSLYLQMNSLRAEDTAVYYCARVYGSTLHYWGQGTLVTVSS", "VL": "DIQMTQSPSSLSASVGDRVTITCRASESVEYHGTSLMHWYQQKPGKAPKLLIYAASNVESGVPSRFSGSGSGTDFTLTISSLQPEDFATYYCQQSRKVPWTFGQGTKVEIKR", "modifications": "afucosylated Fc glycan (Asn297)", "notes": "also called afucosyl h11G2 XC154/XC155; afucosylated h11G2 VL XC154/VH XC155"}}, "key": {"XC276": {"target": "T1, XC276 (human, UniProt P32302 2-372)", "T1 construct": "also called hCXCR5 D10G", "T1 sequence": "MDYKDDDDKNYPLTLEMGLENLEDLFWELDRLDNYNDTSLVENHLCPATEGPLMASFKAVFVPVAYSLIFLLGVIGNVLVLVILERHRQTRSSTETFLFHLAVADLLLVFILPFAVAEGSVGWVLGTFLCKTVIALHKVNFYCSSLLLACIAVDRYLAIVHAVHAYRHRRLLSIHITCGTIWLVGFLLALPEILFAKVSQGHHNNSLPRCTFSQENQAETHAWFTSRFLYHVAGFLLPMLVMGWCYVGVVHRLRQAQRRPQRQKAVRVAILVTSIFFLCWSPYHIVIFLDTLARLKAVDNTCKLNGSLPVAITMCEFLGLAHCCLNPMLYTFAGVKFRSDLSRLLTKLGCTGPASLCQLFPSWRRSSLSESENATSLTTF", "assay": "flow cytometry on HEK-293T cells transiently expressing the FLAG-tagged mutein; ratio of gMFI of the antibody to gMFI of anti-FLAG PE", "method": "(§1) The cells were analyzed by flow cytometry using an Accuri (BD Biosciences Franklin Lakes, N.J.). The geometric mean fluorescence intensity (gMFI) was determined and the ratio for the gMFI of each CXCR5 antibody and anti-flag was calculated."}, "XC277": {"target": "T2, XC277 (human, UniProt P32302 2-372)", "T2 construct": "also called hCXCR5 SI(insertion)", "T2 sequence": "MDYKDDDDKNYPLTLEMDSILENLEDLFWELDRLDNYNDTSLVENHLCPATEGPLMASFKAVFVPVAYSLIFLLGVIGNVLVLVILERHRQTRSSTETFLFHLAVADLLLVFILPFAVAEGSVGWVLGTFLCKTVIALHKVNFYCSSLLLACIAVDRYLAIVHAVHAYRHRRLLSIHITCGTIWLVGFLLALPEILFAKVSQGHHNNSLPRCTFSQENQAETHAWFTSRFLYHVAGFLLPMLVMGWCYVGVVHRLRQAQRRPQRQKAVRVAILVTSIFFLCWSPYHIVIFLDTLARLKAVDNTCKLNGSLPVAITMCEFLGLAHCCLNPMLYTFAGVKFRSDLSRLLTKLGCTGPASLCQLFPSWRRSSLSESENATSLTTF", "assay": "flow cytometry on HEK-293T cells transiently expressing the FLAG-tagged mutein; ratio of gMFI of the antibody to gMFI of anti-FLAG PE", "method": "as §1"}, "CXCR2": {"target": "T3, CXCR2 (human, UniProt P25025 1-360)", "T3 construct": "whole, on cells", "T3 sequence (looked up)": "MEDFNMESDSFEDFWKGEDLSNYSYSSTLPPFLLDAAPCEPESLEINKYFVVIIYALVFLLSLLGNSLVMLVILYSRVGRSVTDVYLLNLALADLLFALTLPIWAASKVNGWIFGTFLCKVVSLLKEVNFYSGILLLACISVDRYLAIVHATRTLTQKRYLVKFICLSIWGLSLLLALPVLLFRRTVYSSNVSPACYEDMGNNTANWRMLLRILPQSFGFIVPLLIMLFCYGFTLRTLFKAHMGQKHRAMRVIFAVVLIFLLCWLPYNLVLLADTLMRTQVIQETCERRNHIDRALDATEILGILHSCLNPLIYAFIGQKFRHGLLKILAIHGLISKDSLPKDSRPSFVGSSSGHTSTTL", "assay": "flow cytometry (GMFI) on fixed CXCR2 cells, chimeric antibody, goat anti-human PE", "method": "To determine the specificity of the antibodies for CXCR5, the binding of the antibodies to cells expressing other […] was assessed. Briefly, FlowCellect chemokine receptor cell lines expressing CXCR1, CXCR2, or CXCR3 (EMD Millipore, Billerica, Mass.), and Jurkats (ATCC, Manassas, Va.), which express CXCR4, were stained with 5 μg/ml or 10 μg/ml of each anti-CXCR5 chimeric antibody. The cells were then incubated with goat anti-human conjugated with PE (Southern Biotech, Birmingham, Ala.) prior to analysis by flow cytometry using a FACSVerse Analyzer (BD Biosciences, Franklin Lakes, N.J.)."}, "XC281": {"target": "T4, XC281 (human, UniProt P32302 2-372)", "T4 construct": "also called hCXCR5 D22A", "T4 sequence": "T1 sequence with G18D, D30A", "assay": "flow cytometry on HEK-293T cells transiently expressing the FLAG-tagged mutein; ratio of gMFI of the antibody to gMFI of anti-FLAG PE", "method": "as §1"}, "XC278": {"target": "T5, XC278 (human, UniProt P32302 2-372)", "T5 construct": "also called hCXCR5 L11T", "T5 sequence": "T1 sequence with G18D, L19T", "assay": "flow cytometry on HEK-293T cells transiently expressing the FLAG-tagged mutein; ratio of gMFI of the antibody to gMFI of anti-FLAG PE", "method": "as §1"}}, "note": "Residue numbers refer to the chain shown, from its start.", "data": [{"binder": "B1", "values": [{"measurement": "binding result", "setting": "XC276", "value": "no binding (tested: 1 or 3 µg/ml (not on the sheet))"}, {"measurement": "binding result", "setting": "XC277", "value": "no binding (tested: 1 or 3 µg/ml (not on the sheet))"}]}, {"binder": "B2", "values": [{"measurement": "binding result", "setting": "CXCR2", "value": "no binding (tested: 5 or 10 µg/ml (not on the sheet))"}]}, {"binder": "B3", "values": [{"measurement": "binding result", "setting": "XC281", "value": "no binding (tested: 1 or 3 µg/ml (not on the sheet))"}, {"measurement": "binding result", "setting": "XC278", "value": "no binding (tested: 1 or 3 µg/ml (not on the sheet))"}]}]}
